Measurements reported in patent publication US6440409.

Columns and labels:
[1] = biological target: T1, translation elongation factor 2 (EF-2), toxin-resistant form without diphthamide (dph1::TRP1 strains)
T1 chain: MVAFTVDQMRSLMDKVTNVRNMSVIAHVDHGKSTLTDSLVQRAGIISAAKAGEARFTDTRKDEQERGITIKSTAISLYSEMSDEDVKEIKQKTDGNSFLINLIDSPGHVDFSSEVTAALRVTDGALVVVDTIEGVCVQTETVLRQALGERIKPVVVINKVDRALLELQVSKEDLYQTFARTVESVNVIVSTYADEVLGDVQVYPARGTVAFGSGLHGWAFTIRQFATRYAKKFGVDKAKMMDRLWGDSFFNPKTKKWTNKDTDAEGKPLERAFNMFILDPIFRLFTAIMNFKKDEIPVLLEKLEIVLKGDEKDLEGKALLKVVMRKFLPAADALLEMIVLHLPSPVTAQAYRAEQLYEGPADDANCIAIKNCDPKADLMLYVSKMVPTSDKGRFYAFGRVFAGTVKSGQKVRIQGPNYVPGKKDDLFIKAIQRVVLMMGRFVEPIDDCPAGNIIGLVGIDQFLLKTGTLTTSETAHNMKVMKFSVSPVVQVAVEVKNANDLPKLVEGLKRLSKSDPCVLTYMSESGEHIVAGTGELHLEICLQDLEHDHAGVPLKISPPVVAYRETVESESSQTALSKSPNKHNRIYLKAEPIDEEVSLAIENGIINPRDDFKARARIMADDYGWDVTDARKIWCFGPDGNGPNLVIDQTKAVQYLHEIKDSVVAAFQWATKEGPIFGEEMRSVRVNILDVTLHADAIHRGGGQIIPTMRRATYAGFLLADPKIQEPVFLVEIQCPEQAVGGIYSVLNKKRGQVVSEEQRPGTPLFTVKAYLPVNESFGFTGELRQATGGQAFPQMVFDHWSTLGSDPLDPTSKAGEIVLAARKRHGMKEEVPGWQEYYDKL

[2] = biological target: T2, translation elongation factor 2 (EF-2), toxin-sensitive form with diphthamide
T2 chain: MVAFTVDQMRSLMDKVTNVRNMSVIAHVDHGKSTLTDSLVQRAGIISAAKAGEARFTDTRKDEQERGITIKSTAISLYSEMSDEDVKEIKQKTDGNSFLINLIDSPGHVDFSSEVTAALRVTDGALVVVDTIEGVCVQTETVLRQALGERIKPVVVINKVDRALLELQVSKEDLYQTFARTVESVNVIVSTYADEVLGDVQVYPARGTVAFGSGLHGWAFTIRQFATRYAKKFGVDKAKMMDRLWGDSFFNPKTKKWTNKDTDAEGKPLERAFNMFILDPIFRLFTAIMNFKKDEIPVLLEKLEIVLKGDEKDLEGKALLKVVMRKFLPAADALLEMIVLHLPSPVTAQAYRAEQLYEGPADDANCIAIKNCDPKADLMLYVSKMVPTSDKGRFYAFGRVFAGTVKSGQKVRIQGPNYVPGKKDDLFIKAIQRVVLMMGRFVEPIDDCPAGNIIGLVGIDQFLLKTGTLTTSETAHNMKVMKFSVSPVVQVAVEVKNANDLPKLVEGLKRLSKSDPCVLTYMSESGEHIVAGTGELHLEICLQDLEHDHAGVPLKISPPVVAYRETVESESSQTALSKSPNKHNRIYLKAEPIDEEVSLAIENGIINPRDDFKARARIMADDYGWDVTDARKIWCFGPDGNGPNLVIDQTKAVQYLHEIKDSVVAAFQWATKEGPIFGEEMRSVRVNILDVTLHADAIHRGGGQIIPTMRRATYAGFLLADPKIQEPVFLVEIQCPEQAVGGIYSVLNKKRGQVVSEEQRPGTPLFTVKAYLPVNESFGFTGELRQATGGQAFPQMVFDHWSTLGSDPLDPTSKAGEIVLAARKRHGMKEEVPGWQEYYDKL

B1: diphtheria toxin F2 fragment (protein)
chain: GADDVVDSSKSFVMENFSSYHGTKPGYVDSIQKGIQKPKSGTQGNYDDDWKGFYSTDNKYDAAGYSVDNENPLSGKAGGVVKVTYPGLTKVLALKVDNAETIKKELGLSLTEPLMEQVGTEEFIKRFGDGASRVVLSLPFAEGSSSVEYINNWEQAKALSVELEINFETRGKRGQDAMYEYMAQACAGNRVRR
[1]
  viable diploids after mating of the killer strain (TMY401 with pTM147) with the diphtheria toxin-resistant strain TMY403 (dph1::TRP1), selected on SC-Ura, His: healthy diploids are readily obtained
[2]
  viable diploids after mating of the killer strain (TMY401 with pTM147) with the target strain (TMY407 with pRS426), selected on SC-Ura, His: very few viable diploids appear at the intersection of the killer and target strains
